Starred links: 1 amine or outer side, 2 acyl side, 3 side chain; linkers in the order of their positions; H or OH if unused. Non-standard residues stand in square brackets, D forms with d. Groups on a side chain read outwards from the residue. No end group written: not given here. *: point of attachment. C20 diacid = O=C(O)CCCCCCCCCCCCCCCCCCC(=O)*; C18 diacid = O=C(O)CCCCCCCCCCCCCCCCC(=O)*; γGlu = O=C(O)[C@H](CCC(=O)[*:2])N[*:1]; αMeF = C[C@](N)(Cc1ccccc1)C(=O)O; AEEA = NCCOCCOCC(=O)O; Aib = CC(C)(N)C(=O)O
What was measured:
human glucagon receptor = human glucagon receptor (human, UniProt P47871); experiment: cell-based or functional assay
human GLP-1 receptor = human GLP-1 receptor (human, UniProt P43220); experiment: cell-based or functional assay

| Binder | cAMP production, hGluc-R EC50 (pM) (human glucagon receptor) | cAMP production, hGLP-1R EC50 (pM) (human GLP-1 receptor) |
| --- | --- | --- |
| H[Aib]QGTFTSDVSK[αMeF]LDSK([AEEA-AEEA-γGlu-C18 diacid])RAQDFVRWLL[Aib]E-OH (N-terminus assumed; SMILES CC(C)C[C@H](NC(=O)[C@H](Cc1c[nH]c2ccccc12)NC(=O)[C@H](CCCNC(=N)N)NC(=O)[C@@H](NC(=O)[C@H](Cc1ccccc1)NC(=O)[C@H](CC(=O)O)NC(=O)[C@H](CCC(N)=O)NC(=O)[C@H](C)NC(=O)[C@H](CCCNC(=N)N)NC(=O)[C@H](CCCCNC(=O)COCCOCCNC(=O)COCCOCCNC(=O)CC[C@H](NC(=O)CCCCCCCCCCCCCCCCC(=O)O)C(=O)O)NC(=O)[C@H](CO)NC(=O)[C@H](CC(=O)O)NC(=O)[C@H](CC(C)C)NC(=O)[C@](C)(Cc1ccccc1)NC(=O)[C@H](CCCCN)NC(=O)[C@H](CO)NC(=O)[C@@H](NC(=O)[C@H](CC(=O)O)NC(=O)[C@H](CO)NC(=O)[C@@H](NC(=O)[C@H](Cc1ccccc1)NC(=O)[C@@H](NC(=O)CNC(=O)[C@H](CCC(N)=O)NC(=O)C(C)(C)NC(=O)[C@@H](N)Cc1c[nH]cn1)[C@@H](C)O)[C@@H](C)O)C(C)C)C(C)C)C(=O)N[C@@H](CC(C)C)C(=O)NC(C)(C)C(=O)N[C@@H](CCC(=O)O)C(=O)O) [Peptide 152] | 20.4 | 11.9 |
| H[Aib]QGTFTSDVSK[αMeF]LDSK([AEEA-AEEA-γGlu-C20 diacid])RAQDFVRWLL[Aib]E-OH (N-terminus assumed; SMILES CC(C)C[C@H](NC(=O)[C@H](Cc1c[nH]c2ccccc12)NC(=O)[C@H](CCCNC(=N)N)NC(=O)[C@@H](NC(=O)[C@H](Cc1ccccc1)NC(=O)[C@H](CC(=O)O)NC(=O)[C@H](CCC(N)=O)NC(=O)[C@H](C)NC(=O)[C@H](CCCNC(=N)N)NC(=O)[C@H](CCCCNC(=O)COCCOCCNC(=O)COCCOCCNC(=O)CC[C@H](NC(=O)CCCCCCCCCCCCCCCCCCC(=O)O)C(=O)O)NC(=O)[C@H](CO)NC(=O)[C@H](CC(=O)O)NC(=O)[C@H](CC(C)C)NC(=O)[C@](C)(Cc1ccccc1)NC(=O)[C@H](CCCCN)NC(=O)[C@H](CO)NC(=O)[C@@H](NC(=O)[C@H](CC(=O)O)NC(=O)[C@H](CO)NC(=O)[C@@H](NC(=O)[C@H](Cc1ccccc1)NC(=O)[C@@H](NC(=O)CNC(=O)[C@H](CCC(N)=O)NC(=O)C(C)(C)NC(=O)[C@@H](N)Cc1c[nH]cn1)[C@@H](C)O)[C@@H](C)O)C(C)C)C(C)C)C(=O)N[C@@H](CC(C)C)C(=O)NC(C)(C)C(=O)N[C@@H](CCC(=O)O)C(=O)O) [Peptide 153] | 99 | 41.2 |
| H[Aib]QGS[αMeF]TSDVSK[αMeF]LDSK([AEEA-AEEA-γGlu-γGlu-C18 diacid])AAQD[αMeF]VQ[Aib]IAN-NH2 (N-terminus assumed; SMILES CC[C@H](C)[C@H](NC(=O)C(C)(C)NC(=O)[C@H](CCC(N)=O)NC(=O)[C@@H](NC(=O)[C@](C)(Cc1ccccc1)NC(=O)[C@H](CC(=O)O)NC(=O)[C@H](CCC(N)=O)NC(=O)[C@H](C)NC(=O)[C@H](C)NC(=O)[C@H](CCCCNC(=O)COCCOCCNC(=O)COCCOCCNC(=O)CC[C@H](NC(=O)CC[C@H](NC(=O)CCCCCCCCCCCCCCCCC(=O)O)C(=O)O)C(=O)O)NC(=O)[C@H](CO)NC(=O)[C@H](CC(=O)O)NC(=O)[C@H](CC(C)C)NC(=O)[C@](C)(Cc1ccccc1)NC(=O)[C@H](CCCCN)NC(=O)[C@H](CO)NC(=O)[C@@H](NC(=O)[C@H](CC(=O)O)NC(=O)[C@H](CO)NC(=O)[C@@H](NC(=O)[C@](C)(Cc1ccccc1)NC(=O)[C@H](CO)NC(=O)CNC(=O)[C@H](CCC(N)=O)NC(=O)C(C)(C)NC(=O)[C@@H](N)Cc1c[nH]cn1)[C@@H](C)O)C(C)C)C(C)C)C(=O)N[C@@H](C)C(=O)N[C@@H](CC(N)=O)C(N)=O) [Peptide 5] | 7140 | 283 |
| H[Aib]QGTFTSDVSK[αMeF]LDSK([AEEA-AEEA-γGlu-C18 diacid])RARDFVRWLL[Aib]TE-OH (also: αMePhe at 23 (V)) [Peptide 166] | 270 | 48 |

Reference: patent US12630600B2 (MEDIMMUNE LIMITED, priority 2022, dated 2026)
